Source: patent US20220064327A1 (KYMAB, published 2022)
Substitutions are numbered along the chain they refer to. Each block holds one binder with its values, some of them ahead of it.

Legend:
human factor IX [1] = biological target: T1, human factor IX (human, UniProt P00740 47-461, 12 glutamic acid residues of the GLA domain are post-translationally γ-carboxylated); assay: SPR as in Example 10, human FIX as analyte
T1 construct: Zymogen used as analyte in SPR, reconstituted at 1 mg/ml; also called FIX; Human FIX (MW ~55 KDa)
Description: (§1) Monospecific antibodies (referred as ligand) which had been purified on Protein A were captured onto the anti-human IgG Fc CM4 surface at approximately 2 μg/ml. The ligands were injected for 60 seconds at 10 μl/min in all the active channels of all 8 flow channels. The run was performed at 25° C. using neutral pH HBS-P 1X+CaCl₂ 2.5 mM as running buffer.
(§2) Human FIX (MW ˜55 KDa) or human FX (MW ˜58 KDa) was reconstituted at 1 mg/ml in the running buffer and used as analyte. The analyte was injected in multiple cycle kinetics (MCK) mode at 3 concentrations (1.5 μM, 500 nM and 166.7 nM) with 120 seconds association phase and 200 seconds (for FIX) or 300 seconds (for FX) dissociation phase, at flow rate […] in both active and reference channels. Three injections of 10 mM Glycine pH 1.5 for 60 sec. at 10 μl/min were used for the regeneration phase.
(§3) Affinity and kinetics of purified anti-FIX and anti-FX antibodies for binding to their respective antigens was determined by SPR as described in Example 10 above.

human factor IX [2] = biological target: T1, human factor IX; assay: SPR, IgG captured on anti-human IgG Fc, human FIX as analyte
Description: (§4) SPR was used to determine the binding affinity (KD) to FIX or FX respectively, the kinetic constants on-rate (kₒₙ) and off-rate (koff). Analyses was performed using a Biacore 8K (GE Healthcare) system.
as §1, §2

human factor X [3] = biological target: T2, human factor X (human, UniProt P00742 41-179; P00742 183-488); assay: SPR as in Example 10, human FX as analyte
T2 construct: Zymogen used as analyte in SPR; also called FX; Human FX (MW ~58 KDa)

human factor X [4] = biological target: T2, human factor X; assay: SPR as in Example 10, human FX as analyte; remark: listed apart in the source
Description: as §1, §2, §3

human factor X [5] = biological target: T2, human factor X; assay: SPR, IgG captured on anti-human IgG Fc, human FX as analyte
human factor X [6] = biological target: T2, human factor X; assay: as above; remark: listed apart in the source
Description: as §4, §1, §2

human factor IX [7] = biological target: T1, human factor IX; assay: SPR, IgG captured on anti-human IgG Fc, human FIX as analyte; remark: listed apart in the source
human factor X [8] = biological target: T2, human factor X; assay: cell-based or functional assay

T1 sequence (P00740 47-461 limits assumed): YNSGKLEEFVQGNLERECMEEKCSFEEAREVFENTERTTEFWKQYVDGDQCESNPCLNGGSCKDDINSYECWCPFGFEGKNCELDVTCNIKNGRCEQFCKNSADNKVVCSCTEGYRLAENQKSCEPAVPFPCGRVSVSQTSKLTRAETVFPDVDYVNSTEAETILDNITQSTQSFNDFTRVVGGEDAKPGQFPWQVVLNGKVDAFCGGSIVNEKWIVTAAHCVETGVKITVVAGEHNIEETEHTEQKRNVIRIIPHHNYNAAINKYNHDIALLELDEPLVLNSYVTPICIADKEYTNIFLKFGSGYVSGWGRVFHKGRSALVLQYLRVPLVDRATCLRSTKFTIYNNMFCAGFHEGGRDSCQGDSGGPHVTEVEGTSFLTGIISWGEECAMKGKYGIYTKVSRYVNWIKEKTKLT
T2 sequence (P00742 41-179, chain 1 of 2): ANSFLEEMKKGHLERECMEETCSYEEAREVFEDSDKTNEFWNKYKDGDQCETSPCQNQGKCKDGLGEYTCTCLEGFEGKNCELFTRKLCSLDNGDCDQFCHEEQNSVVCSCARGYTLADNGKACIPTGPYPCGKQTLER
T2 sequence (P00742 183-488, chain 2 of 2): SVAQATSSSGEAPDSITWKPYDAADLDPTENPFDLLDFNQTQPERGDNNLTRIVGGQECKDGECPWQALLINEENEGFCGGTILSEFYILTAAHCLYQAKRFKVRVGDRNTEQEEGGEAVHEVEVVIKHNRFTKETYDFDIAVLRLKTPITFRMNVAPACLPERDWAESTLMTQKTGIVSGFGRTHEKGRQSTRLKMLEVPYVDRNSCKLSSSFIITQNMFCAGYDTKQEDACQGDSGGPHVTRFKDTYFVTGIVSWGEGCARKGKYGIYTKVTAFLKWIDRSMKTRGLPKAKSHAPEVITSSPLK

B1: NINA-0128 (antibody, V domains shown)
VH: EVQLVESGGGFVQPGGSLRLSCAVSGFTFNSYWMSWVRQAPGKGLEWVANINQDGSEKFYVASVKGRFTMSRDNAKKSVYVQMNSLRAEDTAVYYCAREGYSSSSYYGMDVWGQGTTVTVSS
VL: SYVLTQPPSVSVAPGETARITCGGDNIGRKSVYWYQQKSGQAPVLVIYYDSDRPSGIPERFSGSNSGNTATLTISRVEAGDEADYYCQVWDGSSDHWVFGGGTKLTVL
Kd (human factor IX [1]): 359 nM
koff (human factor IX [1]): 0.0492 s⁻¹
kon (human factor IX [1]): 137000 M⁻¹ s⁻¹
Kd (human factor IX [2]): 198 nM
koff (human factor IX [2]): 0.0576 s⁻¹
kon (human factor IX [2]): 292000 M⁻¹ s⁻¹

B4: TINA-0616.0128 (antibody, V domains shown)
VH: QVQLIQSGAEVKKPGASVKVSCKASRYSFTSYYMHWVRQAPGQGLEWMGIINPKSGSTSYAQKFQGRVTMTRDTSTSTVYMELSSLRSEDTAVYYCARDGYGSSSRCIQLWGQGTLVTVSS
VL: B1 VL
notes: Monospecific IgG; position is IMGT numbering, not a count on the entry
Kd (human factor X [4]): 530 nM
koff (human factor X [4]): 0.0222 s⁻¹
kon (human factor X [4]): 41900 M⁻¹ s⁻¹

B6: TINA-0202.0128 (antibody, V domains shown)
VH: B4 VH with K12Q, I108L
VL: B1 VL
notes: Monospecific IgG4PE
Kd (human factor X [4]): 1380 nM
koff (human factor X [4]): 0.0709 s⁻¹
kon (human factor X [4]): 51300 M⁻¹ s⁻¹
Kd (human factor X [6]): 812 nM
koff (human factor X [6]): 0.072 s⁻¹
kon (human factor X [6]): 88700 M⁻¹ s⁻¹

B11: NINA-1172.0128 (antibody, V domains shown)
VH: B1 VH with E57R, S104I, S105K
VL: B1 VL
Kd (human factor IX [1]): 76.4 nM
koff (human factor IX [1]): 0.0171 s⁻¹
kon (human factor IX [1]): 225000 M⁻¹ s⁻¹

B13: NINA-0460.0128 (antibody, V domains shown)
VH: B1 VH with S105Q
VL: B1 VL
Kd (human factor IX [2]): 181 nM
koff (human factor IX [2]): 0.0318 s⁻¹
kon (human factor IX [2]): 175000 M⁻¹ s⁻¹
Kd (human factor IX [7]): 180 nM

B15: NINA-0438.0128 (antibody, V domains shown)
VH: B1 VH with S104L
VL: B1 VL
Kd (human factor IX [2]): 293 nM
koff (human factor IX [2]): 0.0673 s⁻¹
kon (human factor IX [2]): 230000 M⁻¹ s⁻¹
Kd (human factor IX [7]): 300 nM

B17: IXAX-1280.0999.0325 (bispecific antibody, human IgG4 S228P, lambda)
heavy 1: EVQLVESGGGFVQPGGSLRLSCAVSGFRFNSYWMSWVRQAPGKGLEWVANINQDGSRKFYVASVKGRFTMSRDNAKKSVYVQMNSLRAEDTAVYYCAREGYSSIKYYGMDVWGQGTTVTVSSASTKGPSVFPLAPCSRSTSESTAALGCLVKDYFPEPVTVSWNSGALTSGVHTFPAVLQSSGLYSLSSVVTVPSSSLGTQTYTCNVDHKPSNTKVDKRVESKYGPPCPPCPAPEFLGGPSVFLFPPKPKDTLMISRTPEVTCVVVDVSQEDPEVQFNWYVDGVEVHNAKTKPREEQYNSTYRVVSVLTVLHQDWLNGKEYKCKVSNKGLPSSIEKTISKAKGQPREPQVYTLPPSQEEMTKNQVSLTCLVKGFYPSDIAVEWESNGQPENNYKTTPPVLDSDGSFFLYSKLTVDKSRWQEGNVFSCSVMHEALHNHYTQESLSLSP
heavy 2: QVQLIQSGAKVKKPGASVKVSCKASRYKFTSYYMHWVRQAPGQGLEWMGIINPKSGSTSYAQKFQGRVTMTRDTSTSTVYMELSSLRSEDTAVYYCARDGYGSFSRLIQLWGQGTLVTVSSASTKGPSVFPLAPCSRSTSESTAALGCLVKDYFPEPVTVSWNSGALTSGVHTFPAVLQSSGLYSLSSVVTVPSSSLGTQTYTCNVDHKPSNTKVDKRVESKYGPPCPPCPAPEFLGGPSVFLFPPKPKDTLMISRTPEVTCVVVDVSQEDPEVQFNWYVDGVEVHNAKTKPREEQYNSTYRVVSVLTVLHQDWLNGKEYKCKVSNKGLPSSIEKTISKAKGQPREPQVYTLPPSQKEMTKNQVSLTCLVKGFYPSDIAVEWESNGQPENNYKTTPPVLDSDGSFFLYSKLTVDKSRWQEGNVFSCSVMHEALHNHYTQKSLSLSP
light: YVLTQPPSVSVAPGETARITCGGDNIGRKSVYWYQQKSGQAPVLVIYYDSDRPSGIPERFSGSNSGNTATLTISRVEAGDEADYYCQVWDGSSDHWVFGGGTKLTVLGQPKAAPSVTLFPPSSEELQANKATLVCLISDFYPGAVTVAWKADSSPVKAGVETTTPSKQSNNKYAASSYLSLTPEQWKSHKSYSCQVTHEGSTVEKTVAPTECS
EC50, kinetic FXase assay (FIXa-catalysed activation of FX to FXa, OD405 nm at 600 s) (human factor X [8]): 3.99 nM

Next, values leading:

Kd (human factor X [3]): 300 to 3000 nM
Kd (human factor X [4]): 333 nM
koff (human factor X [4]): 0.0232 s⁻¹
kon (human factor X [4]): 69900 M⁻¹ s⁻¹
B2: TINA-0638.0128 (antibody, V domains shown)
VH: B4 VH with I108L, Q109M
VL: B1 VL
notes: as for B4

Kd (human factor X [5]): 1400 nM
Kd (human factor X [6]): 1370 nM
koff (human factor X [6]): 0.133 s⁻¹
kon (human factor X [6]): 96900 M⁻¹ s⁻¹
B3: TINA-0213.0128 (antibody, V domains shown)
VH: B4 VH with I5V, P14T, S57T, I108L
VL: B1 VL
notes: Monospecific IgG4PE

Kd (human factor IX [1]): 52.3 nM
koff (human factor IX [1]): 0.01 s⁻¹
kon (human factor IX [1]): 192000 M⁻¹ s⁻¹
B5: NINA-1280.0128 (antibody, V domains shown)
VH: B1 VH with T28R, E57R, S104I, S105K
VL: B1 VL

Kd (human factor IX [1]): 218 nM
koff (human factor IX [1]): 0.0352 s⁻¹
kon (human factor IX [1]): 161000 M⁻¹ s⁻¹
B7: NINA-1091.0128 (antibody, V domains shown)
VH: B1 VH with E57R, S103I
VL: B1 VL

Kd (human factor X [4]): 927 nM
koff (human factor X [4]): 0.0417 s⁻¹
kon (human factor X [4]): 44900 M⁻¹ s⁻¹
B8: TINA-0666.0128 (antibody, V domains shown)
VH: B4 VH with C107I
VL: B1 VL
notes: Monospecific IgG

Kd (human factor X [5]): 100 nM
Kd (human factor X [6]): 1360 nM
koff (human factor X [6]): 0.0853 s⁻¹
kon (human factor X [6]): 62600 M⁻¹ s⁻¹
B9: TINA-0205.0128 (antibody, V domains shown)
VH: B4 VH with I5V, S57D, S84N, S105A, I108L
VL: B1 VL
notes: Monospecific IgG4PE

Kd (human factor IX [2]): 263 nM
koff (human factor IX [2]): 0.0396 s⁻¹
kon (human factor IX [2]): 151000 M⁻¹ s⁻¹
B10: NINA-0456.0128 (antibody, V domains shown)
VH: B1 VH with S105L
VL: B1 VL

Kd (human factor X [3]): 300 to 3000 nM
Kd (human factor X [4]): 2520 nM
koff (human factor X [4]): 0.112 s⁻¹
kon (human factor X [4]): 44300 M⁻¹ s⁻¹
Kd (human factor X [6]): 1130 nM
koff (human factor X [6]): 0.115 s⁻¹
kon (human factor X [6]): 103000 M⁻¹ s⁻¹
B12: TINA-0200.0128 (antibody, V domains shown)
VH: B4 VH with I5V, M34L, S55T, S57D, S77T, S105A, I108L
VL: B1 VL
notes: Monospecific IgG4PE

Kd (human factor IX [1]): 359 nM
koff (human factor IX [1]): 0.0523 s⁻¹
kon (human factor IX [1]): 146000 M⁻¹ s⁻¹
Kd (human factor IX [2]): 184 nM
koff (human factor IX [2]): 0.0453 s⁻¹
kon (human factor IX [2]): 246000 M⁻¹ s⁻¹
B14: NINA-0436.0128 (antibody, V domains shown)
VH: B1 VH with S104I
VL: B1 VL

Kd (human factor X [4]): 816 nM
koff (human factor X [4]): 0.0482 s⁻¹
kon (human factor X [4]): 59000 M⁻¹ s⁻¹
Kd (human factor X [6]): 579 nM
koff (human factor X [6]): 0.0502 s⁻¹
kon (human factor X [6]): 86700 M⁻¹ s⁻¹
B16: TINA-0201.0128 (antibody, V domains shown)
VH: B4 VH with I108L
VL: B1 VL
notes: Monospecific IgG4PE
